In data set [1] the target is RNF4 C55S, C59S tagged with glycine-cysteine at its C terminus (RNF4-C196). The data set can be described thus: cross-linking; disulfide dimer formation of RNF4-C196; 0.062, 0.12, 0.25, 0.5 and 1 μM protein, room temperature, 2 hr, no reducing agents, no SUMO; nonreducing SDS-PAGE and western blotting with an RNF4 antibody; the species is sensitive to DTT.
Data set [2] deals with T1, RNF4 wild type, recombinant, with N-terminal fusions of ECFP or YFP, O88846.
T1 chain: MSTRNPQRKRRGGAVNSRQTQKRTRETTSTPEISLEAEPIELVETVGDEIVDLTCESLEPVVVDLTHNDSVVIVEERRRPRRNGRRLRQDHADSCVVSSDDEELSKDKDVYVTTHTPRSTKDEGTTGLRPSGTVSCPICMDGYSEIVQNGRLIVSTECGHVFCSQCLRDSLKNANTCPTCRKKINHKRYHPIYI
The data set can be described thus: FRET or BRET; in vitro FRET in the absence of poly-SUMO-2; YFP-RNF4 fixed at 0.5 μM, ECFP-RNF4 increased in 0.05 μM increments from 0 to 0.5 μM; triplicates; fit to a single binding site model; monomer to dimer. Particulars: remark: other sources report otherwise.

The target in data set [3] is T1, RNF4 wild type, recombinant, with …. As to the kind of experiment: FRET or BRET; in vitro FRET in the presence of poly-SUMO-2; YFP-RNF4 fixed at 0.5 μM, ECFP-RNF4 increased in 0.05 μM increments from 0 to 0.5 μM; triplicates; apparent Kd from a fit to a single binding site model. Particulars: remark: other sources report otherwise.
Data set [4] concerns the molecule itself. As to the kind of experiment: FRET; with polySUMO-2.

As a reminder, the stoichiometry N is a count of units in the complex or per binding partner. In turn, “RNF4 C55S, C59S tagged with glycine-cysteine at its C terminus (RNF4-C196) (enzyme)” came in with a stoichiometry N in data set [1] of 2.

B1: RNF4 wild type, recombinant, with N-terminal fusions of ECFP or YFP, O88846 1-194 (enzyme)
chain: MSTRNPQRKRRGGAVNSRQTQKRTRETTSTPEISLEAEPIELVETVGDEIVDLTCESLEPVVVDLTHNDSVVIVEERRRPRRNGRRLRQDHADSCVVSSDDEELSKDKDVYVTTHTPRSTKDEGTTGLRPSGTVSCPICMDGYSEIVQNGRLIVSTECGHVFCSQCLRDSLKNANTCPTCRKKINHKRYHPIYI
As for B1, the Kd in data set [2] came to 180 nM; in data set [3], 60 nM.

B2: RNF4 I194A, dimerization-deficient mutant, recombinant, with N-terminal fusions of ECFP or YFP (enzyme)
chain: MSTRNPQRKRRGGAVNSRQTQKRTRETTSTPEISLEAEPIELVETVGDEIVDLTCESLEPVVVDLTHNDSVVIVEERRRPRRNGRRLRQDHADSCVVSSDDEELSKDKDVYVTTHTPRSTKDEGTTGLRPSGTVSCPICMDGYSEIVQNGRLIVSTECGHVFCSQCLRDSLKNANTCPTCRKKINHKRYHPIYA
The molecule B2 returned a Kd in data set [4] of 166 nM.

(Values after article PMC3991395 (2014).)
